Data: US20200306340A1 (ACCELERON PHARMA, published 2020)

Experiments:
activin A [1] = biological target: T1, activin A (UniProt P08476 311-426); experiment: cell-based or functional assay
T1 sequence (looked up): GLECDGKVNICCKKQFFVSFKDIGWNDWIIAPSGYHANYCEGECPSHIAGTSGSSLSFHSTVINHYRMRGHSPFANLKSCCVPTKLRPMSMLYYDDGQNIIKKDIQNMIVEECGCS

GDF11 [2] = biological target: T2, GDF11 (UniProt O95390 299-407); experiment: cell-based or functional assay
T2 sequence (looked up): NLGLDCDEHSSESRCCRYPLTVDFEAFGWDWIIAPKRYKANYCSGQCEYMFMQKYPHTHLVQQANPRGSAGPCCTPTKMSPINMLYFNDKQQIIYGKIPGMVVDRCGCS

activin A [3] = biological target: T1, activin A; experiment: Biacore SPR; receptor-Fc captured by anti-Fc antibody, ligand injected
Method: (§1) Ligands were injected and allowed to flow over the captured receptor protein.

activin B = biological target: T3, activin B (UniProt P09529 293-407); experiment: as above
T3 sequence (looked up): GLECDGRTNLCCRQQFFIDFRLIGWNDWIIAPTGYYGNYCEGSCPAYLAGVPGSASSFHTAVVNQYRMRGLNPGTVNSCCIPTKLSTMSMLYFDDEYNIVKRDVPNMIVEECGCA
Method: as §1

GDF11 [4] = biological target: T2, GDF11; experiment: as above
Method: as §1

GDF8 = biological target: T4, GDF8 (UniProt O14793 267-375); experiment: as above
T4 construct: also called myostatin
T4 sequence (looked up): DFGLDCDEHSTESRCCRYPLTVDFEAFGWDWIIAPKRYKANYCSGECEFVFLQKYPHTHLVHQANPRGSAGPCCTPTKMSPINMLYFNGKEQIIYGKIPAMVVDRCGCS
Method: as §1

BMP6 = biological target: T5, BMP6 (UniProt P22004 382-513, limits assumed); experiment: as above
T5 sequence (looked up): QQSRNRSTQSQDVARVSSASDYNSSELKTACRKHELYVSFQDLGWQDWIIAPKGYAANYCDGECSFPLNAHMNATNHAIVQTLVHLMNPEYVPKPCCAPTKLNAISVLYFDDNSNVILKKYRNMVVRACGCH
Method: as §1

BMP10 = biological target: T6, BMP10 (UniProt O95393 317-424); experiment: as above
T6 sequence (looked up): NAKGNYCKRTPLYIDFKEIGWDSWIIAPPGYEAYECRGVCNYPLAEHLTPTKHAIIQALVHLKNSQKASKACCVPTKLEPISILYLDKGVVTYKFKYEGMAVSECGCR
Method: as §1

GDF3 = biological target: T7, GDF3 (UniProt Q9NR23 251-364); experiment: as above
T7 sequence (looked up): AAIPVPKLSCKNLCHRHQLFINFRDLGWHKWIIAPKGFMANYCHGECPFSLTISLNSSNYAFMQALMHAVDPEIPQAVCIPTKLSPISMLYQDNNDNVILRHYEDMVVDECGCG
Method: as §1

BMP9 = biological target: T8, BMP9 (UniProt Q9UK05 320-429); experiment: Biacore SPR; receptor-Fc captured by anti-Fc antibody, ligand injected; transient interaction
T8 construct: also called GDF2
T8 sequence (looked up): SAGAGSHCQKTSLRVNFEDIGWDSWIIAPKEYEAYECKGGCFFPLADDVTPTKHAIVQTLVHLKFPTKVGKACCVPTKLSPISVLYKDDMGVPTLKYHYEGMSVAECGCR

ActRIIB-Fc A64 (20-134) (from UniProt Q13705 20-134) (Fc fusion)
Activin Inhibition Activity, KI (A-204 CAGA12 luciferase reporter gene assay) (activin A [1]): 1000 nM
GDF11 Inhibition Activity, KI (A-204 CAGA12 luciferase reporter gene assay) (GDF11 [2]): 1000 nM

B1: ALK4-Fc:ActRIIB-Fc heterodimer (Fc fusion)
chain 1: SGPRGVQALLCACTSCLQANYTCETDGACMVSIFNLDGMEHHVRTCIPKVELVPAGKPFYCLSSEDLRNTHCCYTDYCNRIDLRVPSGHLKEPEHPSMWGPVE
chain 2: GRGEAETRECIYYNANWELERTNQSGLERCEGEQDKRLHCYASWRNSSGTIELVKKGCWLDDFNCYDRQECVATEENPQVYFCCCEGNFCNERFTHLPEAGGPEVTYEPPPTAPT
Kd (activin A [3]): 0.012 nM
koff (activin A [3]): 0.00015 s⁻¹
kon (activin A [3]): 1.3e+07 M⁻¹ s⁻¹
Kd (activin B): 0.006 nM
koff (activin B): 4e-05 s⁻¹
kon (activin B): 7.1e+06 M⁻¹ s⁻¹
Kd (GDF11 [4]): 0.003 nM
koff (GDF11 [4]): 0.00011 s⁻¹
kon (GDF11 [4]): 3.8e+07 M⁻¹ s⁻¹
Kd (GDF8): 0.55 nM
koff (GDF8): 0.00021 s⁻¹
kon (GDF8): 390000 M⁻¹ s⁻¹
Kd (BMP6): 2.7 nM
koff (BMP6): 0.0055 s⁻¹
kon (BMP6): 2e+06 M⁻¹ s⁻¹
Kd (BMP10): 0.074 nM
koff (BMP10): 0.0041 s⁻¹
kon (BMP10): 5.6e+07 M⁻¹ s⁻¹
Kd (GDF3): 4.9 nM
koff (GDF3): 0.017 s⁻¹
kon (GDF3): 3.4e+06 M⁻¹ s⁻¹
Kd (BMP9): 3.4 nM
